For assay [1], the target named is T1, human HER1 ectodomain (human, UniProt P00533 25-645).
T1 construct: extracellular domain; also called hu HER1 ECD; Her1 ECD
The experiment in a line: SPR Biacore T100, 37 C, antibody captured via anti-human IgG-Fc, ECD as analyte, 1:1 Langmuir fit. Background: SPR reads the build-up and loss of mass on a sensor chip optically.
Procedure: (§1) All experiments were performed on a Biacore T100 (GE Healthcare). Experimental results were analyzed using the T100 control and evaluation software package (GE Healthcare, v2.03). The assay format was a ‘multi cycle kinetic’ measurement on a CM5-chip. […] Using a concentration series, seven increasing concentrations of each of the antigens (human Her1, Her2, and Her3 ectodomain) were injected separately. […] Running buffer was PBS-T. Dilution buffer was PBST containing BSA (c=1 mg/mL). Capturing of MAbs<HerX> on flow cell 2, 3, and 4 with a concentration of approx. c=1 nM, flow 50/min, time 72 sec. […] Dissociation time: 1800 sec. Each concentration was analyzed as duplicate. Final regeneration was performed after each cycle using 3 M MgCl2 (recommended by vendor) with a contact time of 120 sec and a flow rate of 50 μl/min. Analysis of simultaneous binding: Her2/Her3, Her3/Her2 or Her1/Her2 were injected consecutively using the dual inject mode with a contact time of 180 sec. each. The antigen concentration was chosen for each antigen at the saturation as observed in the kinetics experiment. […] A temperature of 25° C. was chosen to minimize dissociation. Triplicates for each combination were determined. Flow rate 30 mL/min, dual inject with two injects, each 180 sec.

The target in assay [2] is T2, human HER3 ectodomain (human, UniProt P21860 20-643).
T2 construct: extracellular domain; also called hu HER3 ECD; Her3 ECD
The description is as above.
Procedure: as §1

In assay [3] the target is T3, human HER2 ectodomain (human, UniProt P04626 23-652).
T3 construct: extracellular domain; also called hu HER2 ECD; Her2 ECD
Nature of the assay: SPR (Biacore T100), antibody captured via anti-human IgG-Fc on a CM5 chip, dual inject Her2 then Her3 ectodomain, 180 s each, 25 °C.
Procedure: as §1

The source of these data is patent US20150166670A1 (Hoffmann-La Roche, published 2015).

T2 sequence (P21860 20-643): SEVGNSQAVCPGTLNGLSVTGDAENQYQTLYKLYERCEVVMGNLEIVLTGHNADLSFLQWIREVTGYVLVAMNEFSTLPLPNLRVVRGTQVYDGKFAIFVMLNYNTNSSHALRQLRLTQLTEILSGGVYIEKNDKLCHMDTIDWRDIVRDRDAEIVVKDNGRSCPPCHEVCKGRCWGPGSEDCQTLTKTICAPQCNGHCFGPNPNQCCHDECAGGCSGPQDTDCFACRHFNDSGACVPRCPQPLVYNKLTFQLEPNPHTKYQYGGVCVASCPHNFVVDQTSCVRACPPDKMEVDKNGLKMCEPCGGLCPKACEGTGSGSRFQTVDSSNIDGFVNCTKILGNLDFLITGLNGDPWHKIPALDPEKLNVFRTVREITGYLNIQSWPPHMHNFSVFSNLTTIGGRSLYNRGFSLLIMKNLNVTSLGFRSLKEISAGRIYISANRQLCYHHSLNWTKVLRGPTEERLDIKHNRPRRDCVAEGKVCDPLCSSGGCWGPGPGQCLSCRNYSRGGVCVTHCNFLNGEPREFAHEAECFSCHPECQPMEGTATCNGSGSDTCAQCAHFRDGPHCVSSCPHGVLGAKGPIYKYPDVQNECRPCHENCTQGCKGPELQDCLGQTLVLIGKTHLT

B1: parental DAF (Her1-Her3 dual affinity antibody) (antibody)
heavy 1: not shown
heavy 2: not shown
light: DIQMTQSPSSLSASVGDRVTITCRASQNIATDVAWYQQKPGKAPKLLIYSASFLYSGVPSRFSGSGSGTDFTLTISSLQPEDFATYYCQQSEPEPYTFGQGTKVEIKRTVAAPSVFIFPPSDEQLKSGTASVVCLLNNFYPREAKVQWKVDNALQSGNSQESVTEQDSKDSTYSLSSTLTLSKADYEKHKVYACEVTHQGLSSPVTKSFNRGEC
notes: also called DAF antibody; Bispecific parent Her1/Her3 (with KiH)
For orientation: Kd means the free concentration of one partner at which half of the binding sites on the other are occupied at equilibrium, for simple one-to-one binding. Low readings indicate tighter binding, high ones weaker binding. For orientation: koff means a measure of how fast the partners let go of each other. Read a low koff as slow dissociation. As a reminder, the kon is a measure of how fast the partners come together. A lower kon goes with slower complex formation. Turning to B1, in assay [1], binding was characterised by a dissociation constant (Kd) of 14 nM, the koff was 0.021 s⁻¹, the kon was determined as 1.4e+06 M⁻¹ s⁻¹ and the “t ½” value amounted to 0.6 min. In assay [2], the affinity, expressed as Kd, was 1.9 nM; the koff stood at 0.0037 s⁻¹; the kon was 2e+06 M⁻¹ s⁻¹; the “t ½” value was determined as 3.1 min. Further, in assay [3], the binding result is “no binding”.

B2: trispecific antibody KiH Her1-Her3 DAF-xHer2 (antibody, human IgG1, kappa)
heavy 1: not shown
heavy 2: not shown
light 1: B1 light
light 2: DIQMTQSPSSLSASVGDRVTITCKASQDVSIGVAWYQQKPGKAPKLLIYSASYRYTGVPSRFSGSGSGTDFTLTISSLQPEDFATYYCQQYYIYPYTFGQGTKVEIKSSASTKGPSVFPLAPSSKSTSGGTAALGCLVKDYFPEPVTVSWNSGALTSGVHTFPAVLQSSGLYSLSSVVTVPSSSLGTQTYICNVNHKPSNTKVDKKVEPKSC
notes: also called Trispecific Her1/Her3 xHer2
In the case of B2, in assay [1], the Kd is 17 nM, the koff was 0.02 s⁻¹, the association rate constant (kon) amounted to 1.2e+06 M⁻¹ s⁻¹ and the “t ½” value was 0.6 min. In assay [2], binding was characterised by a dissociation constant (Kd) of 1.8 nM, the koff was 0.0044 s⁻¹, the kon was determined as 2.4e+06 M⁻¹ s⁻¹ and the “t ½” value was 2.6 min.
